Measured values: patent US20150056222A1

Target: mouse PRLR on HEK293 cells (mouse) (UniProt Q08501)
Assay: FACS, HEK293/mPRLR cells

Chain of mouse PRLR on HEK293 cells (mouse) (Q08501 20-608): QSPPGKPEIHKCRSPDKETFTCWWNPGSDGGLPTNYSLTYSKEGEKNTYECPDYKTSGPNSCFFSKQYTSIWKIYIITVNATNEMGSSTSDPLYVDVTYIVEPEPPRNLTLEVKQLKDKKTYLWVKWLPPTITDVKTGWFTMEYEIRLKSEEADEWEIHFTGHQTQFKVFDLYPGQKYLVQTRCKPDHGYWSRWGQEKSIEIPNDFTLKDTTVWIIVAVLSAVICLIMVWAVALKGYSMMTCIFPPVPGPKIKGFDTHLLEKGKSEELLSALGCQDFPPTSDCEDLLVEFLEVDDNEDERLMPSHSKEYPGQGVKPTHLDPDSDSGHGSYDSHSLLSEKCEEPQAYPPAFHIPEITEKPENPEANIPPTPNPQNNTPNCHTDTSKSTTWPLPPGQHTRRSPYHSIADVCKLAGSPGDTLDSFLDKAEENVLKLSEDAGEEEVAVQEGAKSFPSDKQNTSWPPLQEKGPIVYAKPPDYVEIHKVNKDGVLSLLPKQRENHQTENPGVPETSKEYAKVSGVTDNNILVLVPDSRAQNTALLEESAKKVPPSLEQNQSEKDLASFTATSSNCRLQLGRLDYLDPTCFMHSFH

FACS Cell Binding (Fold Above Background) (fold above background): 1
Substance: Isotype Ctrl I (antibody)
